B1: NPASRLTAL (peptide)
peptide: NPASRLTAL
B2: APVVFPAL (peptide)
peptide: APVVFPAL
B3: RPPLSQRHTF (peptide)
peptide: RPPLSQRHTF
B4: SPRRLVELAGQSL (peptide)
peptide: SPRRLVELAGQSL
B5: LPGEREAAL (peptide)
peptide: LPGEREAAL
B6: APRLALDPDAL (peptide)
peptide: APRLALDPDAL
B7: APHAGGALL (peptide)
peptide: APHAGGALL
B8: KPRNMTGLDL (peptide)
peptide: KPRNMTGLDL
B9: SPMEAILVSRL (peptide)
peptide: SPMEAILVSRL
B10: SPDPAHLESL (peptide)
peptide: SPDPAHLESL
B11: RPFSAIAEL (peptide)
peptide: RPFSAIAEL
B12: LPTDLFNSVM (peptide)
peptide: LPTDLFNSVM
B13: LPQLKPAL (peptide)
peptide: LPQLKPAL
B14: SPSSASLTL (peptide)
peptide: SPSSASLTL
B15: MVLGIGPVL (peptide)
peptide: MVLGIGPVL
B16: YPLSLALHF (peptide)
peptide: YPLSLALHF
B17: KPRTPFTTA (peptide)
peptide: KPRTPFTTA
B18: APLMPLGKTL (peptide)
peptide: APLMPLGKTL
B19: FPVQATIDF (peptide)
peptide: FPVQATIDF
B20: SPYGSDRLVQL (peptide)
peptide: SPYGSDRLVQL
B21: QPSLKKIIL (peptide)
peptide: QPSLKKIIL
B22: SPAPWRPWI (peptide)
peptide: SPAPWRPWI
B23: SPGWAQTQL (peptide)
peptide: SPGWAQTQL
B24: GPRQVLFPL (peptide)
peptide: GPRQVLFPL
B25: VPLSSYVSI (peptide)
peptide: VPLSSYVSI
B26: RPKSTLMNF (peptide)
peptide: RPKSTLMNF
B27: SPASRSISLL (peptide)
peptide: SPASRSISLL
B28: VPRPTSTVGLFL (peptide)
peptide: VPRPTSTVGLFL
B29: MPLLADVRL (peptide)
peptide: MPLLADVRL
B30: MPYNSAHHCVV (peptide)
peptide: MPYNSAHHCVV
B31: APALPGQVTI (peptide)
peptide: APALPGQVTI
B32: SPYAGSTAF (peptide)
peptide: SPYAGSTAF
B33: QPVKKNTL (peptide)
peptide: QPVKKNTL
B34: GPRTTQSSVL (peptide)
peptide: GPRTTQSSVL
B35: SPTLRQLDL (peptide)
peptide: SPTLRQLDL
B36: LPLDTRTSI (peptide)
peptide: LPLDTRTSI
B37: LPAPTSLVL (peptide)
peptide: LPAPTSLVL
B38: RPGPQRTTSV (peptide)
peptide: RPGPQRTTSV
B39: SPYPGSAAF (peptide)
peptide: SPYPGSAAF
B40: APQVHIFSL (peptide)
peptide: APQVHIFSL
B41: RPKHFLQML (peptide)
peptide: RPKHFLQML
B42: APAKDARASL (peptide)
peptide: APAKDARASL
B43: VPILPLNHAL (peptide)
peptide: VPILPLNHAL
B44: RPLDTFRVL (peptide)
peptide: RPLDTFRVL
B45: LPRGVLEGL (peptide)
peptide: LPRGVLEGL
B46: RPNGEVKSEL (peptide)
peptide: RPNGEVKSEL
B47: MPHLGPGILL (peptide)
peptide: MPHLGPGILL
B48: APLRVHITSL (peptide)
peptide: APLRVHITSL
B49: APMHIDRNIL (peptide)
peptide: APMHIDRNIL
B50: LPAPLRISL (peptide)
peptide: LPAPLRISL
B51: VPYPSPTCV (peptide)
peptide: VPYPSPTCV
B52: TPHGITDIL (peptide)
peptide: TPHGITDIL
B53: VPKADLLTL (peptide)
peptide: VPKADLLTL
B54: SPLEKINSF (peptide)
peptide: SPLEKINSF
B55: LPAFSKIGGIL (peptide)
peptide: LPAFSKIGGIL
B56: APKTSFIAA (peptide)
peptide: APKTSFIAA
B57: IPTSRVITL (peptide)
peptide: IPTSRVITL
B58: RPKTSVNLISSL (peptide)
peptide: RPKTSVNLISSL
B59: LPRSPPLKVL (peptide)
peptide: LPRSPPLKVL
B60: SPRSNPVRL (peptide)
peptide: SPRSNPVRL
B61: VPKSLPYVL (peptide)
peptide: VPKSLPYVL
B62: VPRNQDWLGVSRQL (peptide)
peptide: VPRNQDWLGVSRQL
B63: SPRQPRLDF (peptide)
peptide: SPRQPRLDF
B64: KPRTPFTTAQL (peptide)
peptide: KPRTPFTTAQL
B65: QPRDGWPMML (peptide)
peptide: QPRDGWPMML
B66: TPISNTGVL (peptide)
peptide: TPISNTGVL
B67: RPYGCVLRAA (peptide)
peptide: RPYGCVLRAA
B68: FPQVGRTAL (peptide)
peptide: FPQVGRTAL
B69: LPSLHVLVL (peptide)
peptide: LPSLHVLVL
B70: SPSFSSTLLSL (peptide)
peptide: SPSFSSTLLSL
B71: NPVPVITWYKDNRL (peptide)
peptide: NPVPVITWYKDNRL
B72: VPIPTHYFVVL (peptide)
peptide: VPIPTHYFVVL
B73: APKFISPASQL (peptide)
peptide: APKFISPASQL
B74: APSRLLEL (peptide)
peptide: APSRLLEL
B75: IPMPRITWL (peptide)
peptide: IPMPRITWL

Molecular target: HLA-B*07 (human)
Assay: UV peptide exchange ELISA; ++++ = yield >75%

| Binder | peptide exchange yield [%] |
| --- | --- |
| B1 | > 75 |
| B2 | > 75 |
| B3 | > 75 |
| B4 | > 75 |
| B5 | > 75 |
| B6 | > 75 |
| B7 | > 75 |
| B8 | > 75 |
| B9 | > 75 |
| B10 | > 75 |
| B11 | > 75 |
| B12 | > 75 |
| B13 | > 75 |
| B14 | > 75 |
| B15 | > 75 |
| B16 | > 75 |
| B17 | > 75 |
| B18 | > 75 |
| B19 | > 75 |
| B20 | > 75 |
| B21 | > 75 |
| B22 | > 75 |
| B23 | > 75 |
| B24 | > 75 |
| B25 | > 75 |

| Binder | peptide exchange yield [%] |
| --- | --- |
| B26 | > 75 |
| B27 | > 75 |
| B28 | > 75 |
| B29 | > 75 |
| B30 | > 75 |
| B31 | > 75 |
| B32 | > 75 |
| B33 | > 75 |
| B34 | > 75 |
| B35 | > 75 |
| B36 | > 75 |
| B37 | > 75 |
| B38 | > 75 |
| B39 | > 75 |
| B40 | > 75 |
| B41 | > 75 |
| B42 | > 75 |
| B43 | > 75 |
| B44 | > 75 |
| B45 | > 75 |
| B46 | > 75 |
| B47 | > 75 |
| B48 | > 75 |
| B49 | > 75 |
| B50 | > 75 |

| Binder | peptide exchange yield [%] |
| --- | --- |
| B51 | > 75 |
| B52 | > 75 |
| B53 | > 75 |
| B54 | > 75 |
| B55 | > 75 |
| B56 | > 75 |
| B57 | > 75 |
| B58 | > 75 |
| B59 | > 75 |
| B60 | > 75 |
| B61 | > 75 |
| B62 | > 75 |
| B63 | > 75 |
| B64 | > 75 |
| B65 | > 75 |
| B66 | > 75 |
| B67 | > 75 |
| B68 | > 75 |
| B69 | > 75 |
| B70 | > 75 |
| B71 | > 75 |
| B72 | > 75 |
| B73 | > 75 |
| B74 | > 75 |
| B75 | > 75 |

From patent US20200040057A1 (IMMATICS BIOTECHNOLOGIES, published 2020)
